Assay results published in doi:10.1101/826578.

B1: dsG4 (dsGQ) (structured_DNA)
DNA 1: ACGAGAGCTAGCACATTTTGAGGGTGGGTAGGGTGGGTAATTTTCACGTAGAACCTGT
DNA 2: ACAGGTTCTACGTGATTTTTTTTTTTTTTTTTTTTTTTTTTTTTGTGCTAGCTCTCGT
B2: dsHP (structured_DNA)
DNA 1: ACGAGAGCTAGCACATTTTGAGGCTGCGTTTCGCAGCCTCAATTTCACGTAGAACCTGT
DNA 2: B1 DNA 2

Biological target: Timeless (optimised construct);Tipin (human;human, UniProt Q9UNS1;Q9BVW5 1-238+=GSTGST+331-1208;1-301, internal_change|)
Assay: EMSA

Binder	binding result
B1	binds
B2	no binding
